These results are taken from ChEMBL document CHEMBL3526019, “Novel cytochrome P450-mediated ring opening of the 1,3,4-oxadiazole in setileuton, a 5-lipoxygenase inhibitor” (Drug Metab Dispos, 2011).

Substrate in series [1]: CC[C@](O)(c1nnc(NCc2ccc3c(-c4ccc(F)cc4)cc(=O)oc3c2)o1)C(F)(F)F
Nature of the series: Activity of rat recombinant CYP3A2 expressed in baculovirus-infected insect cells assessed as enzyme-mediated N-((4-(4-fluorophenyl)-2-oxochroman-7-yl)methyl)-2-((S)-2-hydroxy-2-(trifluoromethyl)butanoyl)hydrazinecarboxamide formation preincubated for 3 mins by Michaelis-Menten equation in presence of NADPH for 10 mins. It counts as ADME.

Substrate in series [2]: CC[C@](O)(c1nnc(NCc2ccc3c(-c4ccc(F)cc4)cc(=O)oc3c2)o1)C(F)(F)F
Nature of the series: Activity of rat recombinant CYP1A1 expressed in baculovirus-infected insect cells assessed as enzyme-mediated N-((4-(4-fluorophenyl)-2-oxochroman-7-yl)methyl)-2-((S)-2-hydroxy-2-(trifluoromethyl)butanoyl)hydrazinecarboxamide formation preincubated for 3 mins by Michaelis-Menten equation in presence of NADPH for 10 mins. It counts as ADME.

B1: Cytochrome P450 3A2 (Rattus norvegicus) (protein)
chain: MDLLSALTLETWVLLAVILVLLYRLGTHRHGIFKKQGIPGPKPLPFLGTVLNYYKGLGRFDMECYKKYGKIWGLFDGQTPVFAIMDTEMIKNVLVKECFSVFTNRRDFGPVGIMGKAVSVAKDEEWKRYRALLSPTFTSGRLKEMFPIIEQYGDILVKYLKQEAETGKPVTMKKVFGAYSMDVITSTSFGVNVDSLNNPKDPFVEKTKKLLRFDFFDPLFLSVVLFPFLTPIYEMLNICMFPKDSIAFFQKFVHRIKETRLDSKHKHRVDFLQLMLNAHNNSKDEVSHKALSDVEIIAQSVIFIFAGYETTSSTLSFVLYFLATHPDIQKKLQEEIDGALPSKAPPTYDIVMEMEYLDMVLNETLRLYPIGNRLERVCKKDIELDGLFIPKGSVVTIPTYALHHDPQHWPKPEEFHPERFSKENKGSIDPYVYLPFGNGPRNCIGMRFALMNMKLALTKVLQNFSFQPCKETQIPLKLSRQAILEPEKPIVLKVLPRDAVINGA
Broadly, the Km is the substrate concentration at which the rate is half of its maximum. Consider B1, for which the Km in series [1] turned out to be 2.2 µM.

B2: Cytochrome P450 1A1 (Rattus norvegicus) (protein)
chain: MPSVYGFPAFTSATELLLAVTTFCLGFWVVRVTRTWVPKGLKSPPGPWGLPFIGHVLTLGKNPHLSLTKLSQQYGDVLQIRIGSTPVVVLSGLNTIKQALVKQGDDFKGRPDLYSFTLIANGQSMTFNPDSGPLWAARRRLAQNALKSFSIASDPTLASSCYLEEHVSKEAEYLISKFQKLMAEVGHFDPFKYLVVSVANVICAICFGRRYDHDDQELLSIVNLSNEFGEVTGSGYPADFIPILRYLPNSSLDAFKDLNKKFYSFMKKLIKEHYRTFEKGHIRDITDSLIEHCQDRRLDENANVQLSDDKVITIVFDLFGAGFDTITTAISWSLMYLVTNPRIQRKIQEELDTVIGRDRQPRLSDRPQLPYLEAFILETFRHSSFVPFTIPHSTIRDTSLNGFYIPKGHCVFVNQWQVNHDQELWGDPNEFRPERFLTSSGTLDKHLSEKVILFGLGKRKCIGETIGRLEVFLFLAILLQQMEFNVSPGEKVDMTPAYGLTLKHARCEHFQVQMRSSGPQHLQA
B2: the Km in series [2] stood at 6 µM.
